{"source": "paper PMC7919418", "about": "(Genes & Development, 2021)", "assay": "SEC-MALS molecular weight / oligomeric state", "assay_type": "physicochemical"}
{"substance": "dual-TQT/V Panx peptides: Panx peptide residues 455–480 with both Ctp binding sites (TLYKNAATQTERRTATRDAGTQVRLE)", "values": [{"measurement": "oligomeric state / stoichiometry", "result": "two Ctp homodimers with two dual-TQT/V Panx peptides"}]}
